The values below are quoted from earlier work in article PMC10419064.

The data set deals with Cardiac troponin I switch peptide (Homo sapiens) (UniProt P19429).

In general, Kd refers to the constant that tells how readily two partners part at equilibrium. In the case of “Cardiac troponin C regulatory N-domain (from UniProt P63316)”, the Kd was less than 50 µM.
